Test results: paper PMC5493754, “Myosin 7 and its adaptors link cadherins to actin” (Nature Communications, 2017)

T1: YFP-Full length (FL)-harmonin (harmonin-a1) (human, UniProt Q9Y6N9-1 1-552)
T1 construct: Harmonin-a1 (USH1C), human, residues 1-552 of UniProt Q9Y6N9-1; also called ^YFPFL (isoA); ^YFPFL; source: E. coli BL21 (DE3) Rosetta, purified (Glutathione Sepharose 4B, size-exclusion chromatography)
T1 sequence (looked up): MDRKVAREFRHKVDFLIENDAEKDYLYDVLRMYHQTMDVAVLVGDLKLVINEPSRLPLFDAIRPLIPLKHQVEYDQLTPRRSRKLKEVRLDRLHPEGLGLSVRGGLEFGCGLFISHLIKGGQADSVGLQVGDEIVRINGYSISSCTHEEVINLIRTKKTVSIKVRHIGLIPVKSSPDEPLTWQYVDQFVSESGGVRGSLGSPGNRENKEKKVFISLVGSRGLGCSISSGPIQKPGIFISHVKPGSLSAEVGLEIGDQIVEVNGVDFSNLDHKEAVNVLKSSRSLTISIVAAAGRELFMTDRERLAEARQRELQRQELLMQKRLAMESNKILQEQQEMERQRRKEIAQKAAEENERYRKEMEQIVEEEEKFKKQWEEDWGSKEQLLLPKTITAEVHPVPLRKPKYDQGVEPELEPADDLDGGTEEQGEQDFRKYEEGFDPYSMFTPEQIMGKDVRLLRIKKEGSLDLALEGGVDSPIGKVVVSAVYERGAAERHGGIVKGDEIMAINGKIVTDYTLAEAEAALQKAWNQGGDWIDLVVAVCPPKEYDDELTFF

T2: FL-harmonin-ΔCter (human, UniProt Q9Y6N9-1 1-542)
T2 construct: Harmonin-a1 (USH1C), human, residues 1-542 of UniProt Q9Y6N9-1; also called FL ΔCter; source: E. coli BL21 (DE3) Rosetta, purified (Glutathione Sepharose 4B, size-exclusion chromatography)
T2 sequence (looked up): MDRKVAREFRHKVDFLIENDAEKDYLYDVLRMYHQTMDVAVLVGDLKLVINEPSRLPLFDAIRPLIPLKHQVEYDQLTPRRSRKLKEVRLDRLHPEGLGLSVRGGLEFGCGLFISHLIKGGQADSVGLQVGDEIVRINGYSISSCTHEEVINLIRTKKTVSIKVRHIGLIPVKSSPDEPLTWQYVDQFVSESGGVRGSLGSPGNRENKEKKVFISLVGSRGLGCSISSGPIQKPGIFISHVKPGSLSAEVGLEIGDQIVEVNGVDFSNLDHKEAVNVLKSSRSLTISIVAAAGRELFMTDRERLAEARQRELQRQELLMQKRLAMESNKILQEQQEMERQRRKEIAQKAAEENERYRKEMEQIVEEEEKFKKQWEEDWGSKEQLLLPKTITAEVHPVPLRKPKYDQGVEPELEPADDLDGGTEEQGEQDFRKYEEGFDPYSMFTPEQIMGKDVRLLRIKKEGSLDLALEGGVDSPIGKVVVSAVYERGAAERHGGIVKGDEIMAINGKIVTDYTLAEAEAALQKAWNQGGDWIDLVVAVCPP

T3: Full length (FL)-harmonin (harmonin-a1) (human, UniProt Q9Y6N9-1 1-552)
T3 construct: Harmonin-a1 (USH1C), human, residues 1-552 of UniProt Q9Y6N9-1; also called FL-harmonin-a; source: E. coli BL21 (DE3) Rosetta, purified (Glutathione Sepharose 4B, size-exclusion chromatography)
T3 sequence (looked up): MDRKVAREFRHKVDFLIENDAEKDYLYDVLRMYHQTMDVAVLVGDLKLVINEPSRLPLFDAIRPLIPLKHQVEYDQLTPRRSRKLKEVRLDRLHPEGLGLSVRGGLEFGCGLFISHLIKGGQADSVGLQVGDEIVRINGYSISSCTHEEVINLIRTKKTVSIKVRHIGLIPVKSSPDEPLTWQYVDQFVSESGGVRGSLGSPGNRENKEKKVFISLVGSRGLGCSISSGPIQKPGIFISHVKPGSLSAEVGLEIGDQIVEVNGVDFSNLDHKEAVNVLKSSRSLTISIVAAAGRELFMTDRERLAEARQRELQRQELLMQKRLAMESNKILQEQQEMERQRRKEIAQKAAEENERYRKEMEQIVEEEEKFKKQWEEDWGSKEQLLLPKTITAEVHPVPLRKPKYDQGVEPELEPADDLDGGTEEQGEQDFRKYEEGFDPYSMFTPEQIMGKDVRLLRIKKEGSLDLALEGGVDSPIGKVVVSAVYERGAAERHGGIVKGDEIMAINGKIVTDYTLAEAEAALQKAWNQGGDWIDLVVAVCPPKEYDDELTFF

T4: Myo7a MF2 G1982E (deafness mutant) (human, UniProt Q13402-1 1702-2215, G1982E)
T4 construct: Myosin 7a, human, MF2, residues 1702-2215 of UniProt Q13402-1, with a deafness missense mutation; source: E. coli, purified similarly as wild type (Histrap, CaptoQ, gel filtration)
T4 sequence (looked up): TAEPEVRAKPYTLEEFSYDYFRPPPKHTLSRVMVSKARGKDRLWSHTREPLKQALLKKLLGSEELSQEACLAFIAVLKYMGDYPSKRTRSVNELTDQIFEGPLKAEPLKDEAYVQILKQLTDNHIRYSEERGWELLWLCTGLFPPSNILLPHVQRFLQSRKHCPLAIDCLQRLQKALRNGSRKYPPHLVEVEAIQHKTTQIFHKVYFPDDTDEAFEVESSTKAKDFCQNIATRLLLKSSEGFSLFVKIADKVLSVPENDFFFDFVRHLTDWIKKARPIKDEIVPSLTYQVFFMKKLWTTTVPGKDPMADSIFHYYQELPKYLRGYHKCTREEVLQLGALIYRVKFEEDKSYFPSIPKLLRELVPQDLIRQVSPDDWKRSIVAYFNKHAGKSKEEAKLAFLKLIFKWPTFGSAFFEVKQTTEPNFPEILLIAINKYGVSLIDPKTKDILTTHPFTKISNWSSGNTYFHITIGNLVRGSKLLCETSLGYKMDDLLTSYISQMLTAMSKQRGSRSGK


How the values were obtained:
Conditions in all cases: both partners purified
[1] = molecular target: T1, YFP-Full length (FL)-harmonin …; test: MST; as a1 but 150 mM NaCl (for FL-Harmonin-a); YFP-fused partner constant at 100 nM, non-fluorescent protein titrated
[2] = molecular target: T2, FL-harmonin-ΔCter; test: as above
[3] = molecular target: T3, Full length (FL)-harmonin (harmonin-a1); test: as above
[4] = molecular target: T4, Myo7a MF2 G1982E (deafness mutant); test: MST; YFP-fused partner constant at 100 nM, non-fluorescent protein titrated (16 two-fold dilutions); 20 mM Hepes pH 7.0, 100 mM NaCl, 1 mM EGTA, 0.5 mM TCEP, 0.05% Tween 20; Monolith NT.115

Kd [1] [nM] | Kd [2] [nM] | Kd [3] [nM] | Kd [4] [nM] | Binder
1400 |  |  |  | Harmonin-a PDZ3c (non-fluorescent, as used in MST) (domain or fragment, human, UniProt Q9Y6N9-1 428-552, looked up, Harmonin-a1 (USH1C), human, PDZ3 plus C-terminal peptide, residues 428-552 of UniProt Q9Y6N9-1; The methods say only that samples for ITC or crystallisation were digested with TEV protease; also called PDZ3c (isoA); source: E. coli BL21 (DE3) Rosetta, purified (Glutathione Sepharose 4B, size-exclusion chromatography)) QDFRKYEEGFDPYSMFTPEQIMGKDVRLLRIKKEGSLDLALEGGVDSPIGKVVVSAVYERGAAERHGGIVKGDEIMAINGKIVTDYTLAEAEAALQKAWNQGGDWIDLVVAVCPPKEYDDELTFF
 | 2300 | 1900 | > 60000 | YFP-Harmonin-a PDZ3c (domain or fragment, human, UniProt Q9Y6N9-1 428-552, looked up, Harmonin-a1 (USH1C), human, residues 428-552 of UniProt Q9Y6N9-1; also called ^YFPPDZ3c (isoA); source: E. coli BL21 (DE3) Rosetta, purified (Glutathione Sepharose 4B, size-exclusion chromatography)) QDFRKYEEGFDPYSMFTPEQIMGKDVRLLRIKKEGSLDLALEGGVDSPIGKVVVSAVYERGAAERHGGIVKGDEIMAINGKIVTDYTLAEAEAALQKAWNQGGDWIDLVVAVCPPKEYDDELTFF
